Data from publication PMC8610173.

Molecular target: NF-Y (NF-YA confirmed by supershift) ((K562 cells)) (UniProt P23511)
Assay: EMSA

Sequence of NF-Y (NF-YA confirmed by supershift) ((K562 cells)) (P23511 whole entry): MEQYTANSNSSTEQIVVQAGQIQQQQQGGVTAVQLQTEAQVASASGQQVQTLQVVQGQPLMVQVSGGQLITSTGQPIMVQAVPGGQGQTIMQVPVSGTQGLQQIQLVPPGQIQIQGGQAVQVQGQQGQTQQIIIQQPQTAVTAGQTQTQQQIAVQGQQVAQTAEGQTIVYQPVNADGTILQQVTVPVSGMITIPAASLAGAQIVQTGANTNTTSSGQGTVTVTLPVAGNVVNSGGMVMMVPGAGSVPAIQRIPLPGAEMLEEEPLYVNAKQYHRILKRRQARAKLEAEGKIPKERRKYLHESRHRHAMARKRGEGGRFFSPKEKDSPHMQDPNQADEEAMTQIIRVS

| Sequence | binding signal (fold of WT band intensity (reference)) | binding signal (fold of WT band intensity) |
| --- | --- | --- |
| AGCCTTGCCTTGACCAATAGCCTTGACAA (double strand) [HBG distal CCAAT box WT] | 1 | – |
| AGCCTTGCCTTGACCAATCGCCTTGACAA (double strand) [HBG distal CCAAT box -110 A>C] | – | 1.5 |
